Assay results: article PMC11194501
One block for each substance: values may come before it.

Tests used:
[1] = biological target: Cep57N (Cep57 residues 56 to 251) (human) (UniProt Q86XR8); experiment: ITC
[2] = biological target: Cep57S-KR (Cep57S with six Lys and Arg residues of the K/R motif replaced by Ala) (human) (UniProt Q86XR8); experiment: pull-down; His-tagged Cep57S held on a Ni-NTA spin column, 0.1 mg α/β-tubulin added, 4 °C; 1X PBS pH 8.0, 1 mM 2-mercaptoethanol, 20 mM imidazole, 0.1% Triton X100, 10% glycerol; eluted with 400 mM imidazole, SDS-PAGE
[3] = biological target: MBP-Cep63N (fusion of MBP and the N-terminal fragment of Cep63) (human) (UniProt Q96MT8); experiment: ITC

- Kd [1]: 0.5 µM
- stoichiometry N [1]: 0.6
Substance: MBP-Cep63N (fusion of MBP and the N-terminal fragment of Cep63) (from UniProt Q96MT8-2 1-541) (domain or fragment)

- reduction of tubulin binding against Cep57S [2]: 65%
Substance: α/β-tubulin (from UniProt P02550 1-451; P02554 1-445) (complex)

- Kd [3]: 0.6 µM
Substance: Cep57N (Cep57 residues 56 to 251) (from UniProt Q86XR8 56-251) (domain or fragment)
